The subject of experiment [1] is LRP6 E1E2 variants with LRP5 BMD substitutions. Briefly: Steady-state affinity for LRP6 E1E2 variants carrying LRP5 BMD substitutions. The class given is binding, human. Here is the method:
FIG. 13. Introduction of LRP5 BMD substitutions into LRP6 E1E2 lowers affinity for Wnt inhibitors. The five substitutions characterized are indicated on the y-axis. Steady-state affinity measurements were made for Wnt9b, Dkk1, and sclerostin binding to each of the LRP6 variants.
(§1) Binding kinetics were measured by biolayer interferometry using an Octet Red instrument (ForteBio) as previously described (11). Streptavidin (SA) biosensors were loaded with biotinylated hLRP6 in 50 mMTris, pH 8, 300 mM NaCl, 5% (v/v) glycerol, and 0.05% (w/v) Triton X-100. The loaded biosensors were washed in the same buffer before carrying out association and dissociation measurements for the indicated times. The Kd of each interaction was determined using steady state-analysis through the Octet Red software v6.3. Each reported value represents an average of three or more experiments at different concentrations, with a fitted experimental curve for which the square of the correlation coefficient (R^2) is above 0.96.
Cells transfected with LRP5 variants carrying BMD mutations show reduced binding to sclerostin and are less sensitive to sclerostin inhibition of Wnt10b or Wnt6 signaling (70). To further test the effects of the BMD substitutions, we introduced several of them into LRP6 E1E2, with the results shown in FIG. 13. LRP6 E1E2 Gly158Val could not be expressed in insect cells. […] Importantly, not only is the binding to sclerostin affected (70), but the binding of Dkk1 to its E1 interaction site is also impaired.

A further experiment addresses T1, LRP6 E1E2 (Homo sapiens, UniProt O75581).
T1 construct: construct E1E2-amino acids A20-E631 of LPR6; made in house; host or cells: Tni insect cells (baculovirus, secreted)
T1 sequence (O75581 20-631): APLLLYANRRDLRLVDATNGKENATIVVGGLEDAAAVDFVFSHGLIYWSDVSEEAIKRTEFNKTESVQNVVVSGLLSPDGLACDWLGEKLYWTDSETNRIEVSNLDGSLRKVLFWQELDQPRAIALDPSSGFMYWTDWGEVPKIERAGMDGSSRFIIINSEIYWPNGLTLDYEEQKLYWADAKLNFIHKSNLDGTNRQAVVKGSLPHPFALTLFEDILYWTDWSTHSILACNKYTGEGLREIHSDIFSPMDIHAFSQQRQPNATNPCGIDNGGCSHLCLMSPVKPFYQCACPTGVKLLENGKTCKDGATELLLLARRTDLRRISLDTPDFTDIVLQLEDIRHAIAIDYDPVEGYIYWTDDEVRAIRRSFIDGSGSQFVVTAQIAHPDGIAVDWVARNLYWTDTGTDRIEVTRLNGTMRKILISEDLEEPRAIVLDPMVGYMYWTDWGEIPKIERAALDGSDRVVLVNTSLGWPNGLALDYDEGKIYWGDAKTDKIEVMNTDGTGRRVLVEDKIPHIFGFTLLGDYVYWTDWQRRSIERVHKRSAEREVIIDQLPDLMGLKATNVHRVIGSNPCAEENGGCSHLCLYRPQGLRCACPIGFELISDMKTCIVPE
Briefly: Biolayer interferometry binding to LRP6 E1E2. Here is the method:
as §1
(§2) The interaction of the different Dkks and sclerostin with various domains of LRP6 was measured using a biolayer interferometry assay (11). Purified receptors contained individual β-propeller-EGF-like units (E1, E2, or E4), two β-propellers (E1E2 or E3E4), or four β-propellers (E1E4))—as follows:
(§3) Human LRP6: construct E1E4-amino acids A20-Q1253 of LPR6; construct E1E2-amino acids A20-E631 of LPR6; construct E3E4 amino acids E631-Q1253 of LPR6; construct E1-amino acids A20-D325 of LPR6; construct E2-amino acids […]-E631 of LPR6; construct E4-T933-Q1253. The individual LRP6 β-propeller E3 could not be expressed.

The target of another experiment is T2, LRP6 E2 (Homo sapiens, UniProt O75581).
T2 construct: construct E2-amino acids D235-E631 of LPR6; made in house; host or cells: Tni insect cells (baculovirus, secreted)
T2 sequence (O75581 325-631 limits assumed): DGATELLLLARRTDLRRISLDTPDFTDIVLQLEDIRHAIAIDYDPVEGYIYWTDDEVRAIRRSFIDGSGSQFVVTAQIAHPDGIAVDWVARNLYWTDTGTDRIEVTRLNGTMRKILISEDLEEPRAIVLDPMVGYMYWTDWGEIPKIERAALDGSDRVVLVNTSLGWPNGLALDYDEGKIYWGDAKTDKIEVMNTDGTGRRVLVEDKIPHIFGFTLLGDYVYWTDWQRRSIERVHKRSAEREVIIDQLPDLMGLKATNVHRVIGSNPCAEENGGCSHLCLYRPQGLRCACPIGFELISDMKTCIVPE
Briefly: Biolayer interferometry binding to LRP6 E2. Here is the method: as §1, §2, §3
A general note: BLI is a label-free optical method that tracks binding on a fibre tip over time.

A further experiment concerns the target T3, LRP6 E3E4 (Homo sapiens, UniProt O75581).
T3 construct: construct E3E4 amino acids E631-Q1253 of LPR6; made in house; host or cells: Tni insect cells (baculovirus, secreted)
T3 sequence (O75581 631-1253): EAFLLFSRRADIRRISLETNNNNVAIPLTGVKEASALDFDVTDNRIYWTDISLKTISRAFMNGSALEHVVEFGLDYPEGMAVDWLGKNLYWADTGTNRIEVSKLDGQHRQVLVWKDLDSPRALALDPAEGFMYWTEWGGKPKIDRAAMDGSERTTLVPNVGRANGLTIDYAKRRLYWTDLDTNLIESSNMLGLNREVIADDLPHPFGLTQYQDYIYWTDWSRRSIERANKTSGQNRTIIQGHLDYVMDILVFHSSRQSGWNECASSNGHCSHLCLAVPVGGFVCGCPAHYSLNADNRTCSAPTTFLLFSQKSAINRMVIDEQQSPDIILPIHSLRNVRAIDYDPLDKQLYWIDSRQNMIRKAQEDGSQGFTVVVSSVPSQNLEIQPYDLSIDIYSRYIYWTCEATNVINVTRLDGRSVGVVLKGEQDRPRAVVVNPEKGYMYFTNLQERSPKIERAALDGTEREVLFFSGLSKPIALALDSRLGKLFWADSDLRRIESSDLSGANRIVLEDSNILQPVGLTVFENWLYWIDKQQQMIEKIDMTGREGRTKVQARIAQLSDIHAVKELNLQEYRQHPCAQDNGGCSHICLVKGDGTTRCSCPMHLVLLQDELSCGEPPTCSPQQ
Briefly: Biolayer interferometry binding to LRP6 E3E4. In a few lines: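 Biotinylated human LRP6 ectodomain constructs (β-propeller-EGF units, e.g. E2 D235–E631, E1E2 A20–E631, E3E4 E631–Q1253) were loaded on streptavidin sensors in pH 8 Tris, 300 mM NaCl, 5% glycerol, 0.05% Triton X-100, then exposed to Dkks or sclerostin. Kd came from steady-state analysis, averaging ≥3 concentrations (R²>0.96).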

“Also recorded” adds a separate entry of the source.

As to “sclerostin: Sclerostin protein, Wnt pathway inhibitor, expressed in insect cells (LPNAIGR)”, the “effect of LRP6 BMD mutations on binding to LRP6 E1E2 (in words)” value in experiment [1] is given as “disrupt the binding”. In addition, the “binding to LRP6 E1E2 (in words)” value with LRP6 E1E2 is on record as “binds”. Also, the “binding to LRP6 E2 (in words)” value with LRP6 E2 is recorded as “very weak or non-specific binding”. In addition, the “binding to LRP6 E3E4 (in words)” value with LRP6 E3E4 is on record as “does not interact”.

With “Dkk1: Dickkopf 1 protein, Wnt pathway inhibitor, expressed in insect cells (NSNAIKN)”, in experiment [1], the “effect of LRP6 BMD mutations on binding to LRP6 E1E2 (in words)” value is given as “disrupt the binding”. Further, the Kd stood at 22 nM in the experiment with LRP6 E1E2 (steady state, read-out: affinity for LRP6 E1E2) and 51 nM with LRP6 E3E4 (steady state, read-out: affinity for LRP6 E3E4). For the same molecule, the “binding to LRP6 E2 (in words)” value with LRP6 E2 is “Partial binding”.

B1: Dkk1 Ile42Glu (ligand, human, UniProt O94907 32-266, looked up)
chain: TLNSVLNSNAEKNLPPPLGGAAGHPGSAVSAAPGILYPGGNKYQTIDNYQPYPCAEDEECGTDEYCASPTRGGDAGVQICLACRKRRKRCMRHAMCCPGNYCKNGICVSSDQNHFRGEIEETITESFGNDHSTLDGYSRRTTLSSKMYHTKGQEGSVCLRSSDCASGLCCARHFWSKICKPVLKEGQVCTKHRRKGSHGLEIFQRCYCGEGLSCRIQKDHHQASNSSRLHTCQRH
notes: also called Dkk1 I42E
With B1, the “binding to LRP6 E1E2 (in words)” value with LRP6 E1E2 is listed as “affect binding”. Further, the “binding to LRP6 E3E4 (in words)” value with LRP6 E3E4 is “not to E3E4”.

B2: Dkk1 K211E (ligand, human, UniProt O94907 32-266, looked up)
chain: TLNSVLNSNAIKNLPPPLGGAAGHPGSAVSAAPGILYPGGNKYQTIDNYQPYPCAEDEECGTDEYCASPTRGGDAGVQICLACRKRRKRCMRHAMCCPGNYCKNGICVSSDQNHFRGEIEETITESFGNDHSTLDGYSRRTTLSSKMYHTKGQEGSVCLRSSDCASGLCCARHFWSKICEPVLKEGQVCTKHRRKGSHGLEIFQRCYCGEGLSCRIQKDHHQASNSSRLHTCQRH
notes: also called Dkk1 Lys211Glu
Regarding B2, in the experiment with LRP6 E3E4, the “binding to LRP6 E3E4 (in words)” value is listed as “interfered with binding; also recorded: affect binding”.

For the origin of these results see US20140235820A1, “METHODS AND COMPOSITIONS FOR MODULATING THE Wnt PATHWAY” (Genentech, Inc., priority 2010, published 2014).
